Test results published in PMC8909857.

Molecular target: Channelrhodopsin-2 (D156C) (Chlamydomonas reinhardtii) (UniProt Q8RUT8)
Experiment: SDS-PAGE; Coomassie-stained SDS-PAGE of SEC-purified fractions (elution volumes 11 to 15 mL); dimer partially SDS-resistant

stoichiometry N: 2
Substance: Channelrhodopsin-2 (D156C) (from UniProt Q8RUT8 1-737) (natural protein)
